Test results reported in paper PMC5906670, “Structural basis of epilepsy-related ligand–receptor complex LGI1–ADAM22” (Nature Communications, 2018).

B1: ADAM22 ECD-FLAG [human] / LGI1-His6 [human] (parent)
chain 1: SKRQLRRYPRNVEEETKYIELMIVNDHLMFKKHRLSVVHTNTYAKSVVNMADLIYKDQLKTRIVLVAMETWATDNKFAISENPLITLREFMKYRRDFIKEKSDAVHLFSGSQFESSRSGAAYIGGICSLLKGGGVNEFGKTDLMAVTLAQSLAHNIGIISDKRKLASGECKCEDTWSGCIMGDTGYYLPKKFTQCNIEEYHDFLNSGGGACLFNKPSKLLDPPECGNGFIETGEECDCGTPAECVLEGAECCKKCTLTQDSQCSDGLCCKKCKFQPMGTVCREAVNDCDIRETCSGNSSQCAPNIHKMDGYSCDGVQGICFGGRCKTRDRQCKYIWGQKVTASDKYCYEKLNIEGTEKGNCGKDKDTWIQCNKRDVLCGYLLCTNIGNIPRLGELDGEITSTLVVQQGRTLNCSGGHVKLEEDVDLGYVEDGTPCGPQMMCLEHRCLPVASFNFSTCLSSKEGTICSGNGVCSNELKCVCNRHWIGSDCNTYFPHNDDAKTGITLSG
chain 2: KKPAKPKCPAVCTCTKDNALCENARSIPRTVPPDVISLSFVRSGFTEISEGSFLFTPSLQLLLFTSNSFDVISDDAFIGLPHLEYLFIENNNIKSISRHTFRGLKSLIHLSLANNNLQTLPKDIFKGLDSLTNVDLRGNSFNCDCKLKWLVEWLGHTNATVEDIYCEGPPEYKKRKINSLSSKDFDCIITEFAKSQDLPYQSLSIDTFSYLNDEYVVIAQPFTGKCIFLEWDHVEKTFRNYDNITGTSTVVCKPIVIETQLYVIVAQLFGGSHIYKRDSFANKFIKIQDIEILKIRKPNDIETFKIENNWYFVVADSSKAGFTTIYKWNGNGFYSHQSLHAWYRDTDVEYLEIVRTPQTLRTPHLILSSSSQRPVIYQWNKATQLFTNQTDIPNMEDVYAVKHFSVKGDVYICLTRFIGDSKVMKWGGSSFQDIQRMPSRGSMVFQPLQINNYQYAILGSDYSFTQVYNWDAEKAKFVKFQELNVQAPRSFTHVSINKRNFLFASSFKGNTQIYKHVIVDLSA

Variants of: B1
Test: pull-down
Details: with LGI1-His6 [human]; Ni-NTA agarose; proteins secreted from HEK293T cells; n = 5 independent experiments; read off a plot

percent of parent	Variant
37 % of WT	chain 1 SKRQLRRYPRNVEEETKYIELMIVNDHLMFKKHRLSVVHTNTYAKSVVNMADLIYKDQLKTRIVLVAMETWATDNKFAISENPLITLREFMKYRRDFIKEKSDAVHLFSGSQFESSRSGAAYIGGICSLLKGGGVNEFGKTDLMAVTLAQSLAHNIGIISDKRKLASGECKCEDTWSGCIMGATGYYLPKKFTQCNIEEYHDFLNSGGGACLFNKPSKLLDPPECGNGFIETGEECDCGTPAECVLEGAECCKKCTLTQDSQCSDGLCCKKCKFQPMGTVCREAVNDCDIRETCSGNSSQCAPNIHKMDGYSCDGVQGICFGGRCKTRDRQCKYIWGQKVTASDKYCYEKLNIEGTEKGNCGKDKDTWIQCNKRDVLCGYLLCTNIGNIPRLGELDGEITSTLVVQQGRTLNCSGGHVKLEEDVDLGYVEDGTPCGPQMMCLEHRCLPVASFNFSTCLSSKEGTICSGNGVCSNELKCVCNRHWIGSDCNTYFPHNDDAKTGITLSG [chain 1 D183A]
4 % of WT	chain 1 SKRQLRRYPRNVEEETKYIELMIVNDHLMFKKHRLSVVHTNTYAKSVVNMADLIYKDQLKTRIVLVAMETWATDNKFAISENPLITLREFMKYRRDFIKEKSDAVHLFSGSQFESSRSGAAYIGGICSLLKGGGVNEFGKTDLMAVTLAQSLAHNIGIISDKRKLASGECKCEDTWSGCIMGDTGAYLPKKFTQCNIEEYHDFLNSGGGACLFNKPSKLLDPPECGNGFIETGEECDCGTPAECVLEGAECCKKCTLTQDSQCSDGLCCKKCKFQPMGTVCREAVNDCDIRETCSGNSSQCAPNIHKMDGYSCDGVQGICFGGRCKTRDRQCKYIWGQKVTASDKYCYEKLNIEGTEKGNCGKDKDTWIQCNKRDVLCGYLLCTNIGNIPRLGELDGEITSTLVVQQGRTLNCSGGHVKLEEDVDLGYVEDGTPCGPQMMCLEHRCLPVASFNFSTCLSSKEGTICSGNGVCSNELKCVCNRHWIGSDCNTYFPHNDDAKTGITLSG [chain 1 Y186A]
